Measured values reported in article PMC1065253.

Experiments:
SeqA(E5,9K) = target: T1, SeqA(E5,9K) (Escherichia coli, UniProt P0AFY8 1-181, E5K;E9K); assay: EMSA
T1 sequence: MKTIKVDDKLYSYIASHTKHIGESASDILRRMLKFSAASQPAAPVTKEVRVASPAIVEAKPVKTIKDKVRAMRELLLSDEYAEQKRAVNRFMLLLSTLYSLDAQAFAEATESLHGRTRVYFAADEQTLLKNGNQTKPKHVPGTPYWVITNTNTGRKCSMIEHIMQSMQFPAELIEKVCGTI

SeqA(D7K) = target: T2, SeqA(D7K) (Escherichia coli, UniProt P0AFY8 1-181, D7K); assay: EMSA
T2 sequence: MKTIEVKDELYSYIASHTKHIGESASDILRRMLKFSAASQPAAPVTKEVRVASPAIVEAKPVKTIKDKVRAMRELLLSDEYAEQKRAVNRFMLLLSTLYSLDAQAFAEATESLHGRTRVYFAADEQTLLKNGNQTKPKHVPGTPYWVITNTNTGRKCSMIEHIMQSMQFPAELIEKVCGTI

SeqA(D8K) = target: T3, SeqA(D8K) (Escherichia coli, UniProt P0AFY8 1-181, D8K); assay: EMSA
T3 sequence: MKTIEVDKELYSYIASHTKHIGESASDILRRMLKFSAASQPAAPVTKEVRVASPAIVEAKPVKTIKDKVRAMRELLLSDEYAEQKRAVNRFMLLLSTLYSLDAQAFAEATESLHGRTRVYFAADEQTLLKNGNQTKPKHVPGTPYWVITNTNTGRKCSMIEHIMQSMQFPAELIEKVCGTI

SeqA(E5K) = target: T4, SeqA(E5K) (Escherichia coli, UniProt P0AFY8 1-181, E5K); assay: EMSA
T4 sequence: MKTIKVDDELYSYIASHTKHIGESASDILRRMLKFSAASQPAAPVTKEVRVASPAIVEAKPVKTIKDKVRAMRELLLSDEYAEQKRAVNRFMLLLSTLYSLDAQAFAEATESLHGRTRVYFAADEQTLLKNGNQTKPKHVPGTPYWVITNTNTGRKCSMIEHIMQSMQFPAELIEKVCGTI

SeqA(E9K) = target: T5, SeqA(E9K) (Escherichia coli, UniProt P0AFY8 1-181, E9K); assay: EMSA
T5 sequence: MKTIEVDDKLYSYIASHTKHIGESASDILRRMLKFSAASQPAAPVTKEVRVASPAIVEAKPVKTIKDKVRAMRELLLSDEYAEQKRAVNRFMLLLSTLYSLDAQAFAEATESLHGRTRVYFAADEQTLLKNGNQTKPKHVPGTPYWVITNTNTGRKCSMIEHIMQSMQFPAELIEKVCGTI

SeqA [1] = target: T6, SeqA (Escherichia coli, UniProt P0AFY8 1-181); assay: AFM
T6 sequence: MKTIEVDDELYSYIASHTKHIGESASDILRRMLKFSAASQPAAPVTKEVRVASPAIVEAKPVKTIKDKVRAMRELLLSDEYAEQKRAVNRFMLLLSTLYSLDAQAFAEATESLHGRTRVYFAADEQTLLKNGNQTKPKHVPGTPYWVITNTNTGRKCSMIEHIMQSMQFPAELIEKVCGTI

SeqA [2] = target: T6, SeqA; assay: AFM; remark: listed apart in the source
SeqA [3] = target: T6, SeqA; assay: EMSA
SeqA(T18G) = target: T7, SeqA(T18G) (Escherichia coli, UniProt P0AFY8 1-181, T18G); assay: EMSA
T7 sequence: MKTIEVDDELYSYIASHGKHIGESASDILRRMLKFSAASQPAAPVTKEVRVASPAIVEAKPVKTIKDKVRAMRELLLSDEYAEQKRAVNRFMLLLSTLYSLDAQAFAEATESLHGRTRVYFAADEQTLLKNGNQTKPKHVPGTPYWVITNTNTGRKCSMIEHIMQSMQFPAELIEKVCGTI

B1: 75 bp, two hemi-sites, 21 bp spacing (dsDNA)
DNA 1: CTGGGTATTAAAAAGAAGATCTATTTATGTTCAGTTCTGATCTGTTCTGTTCTCTTATTAGGCTCGCACTGCCCT
DNA 2: AGGGCAGTGCGAGCCTAATAAGAGAACAGAACAGATCAGAACTGAACATAAATAGATCTTCTTTTTAATACCCAG
modifications: hemi-methylated GATC (N6-methyladenine on one strand; which strand not stated)
B1: no binding (SeqA(E5,9K)); no binding (SeqA(D7K)); binds (SeqA(D8K)). B1: binds (SeqA(E5K)); binds (SeqA(E9K)); binds (SeqA [1]).

B2: 75 bp, two hemi-sites, 11 bp spacing (dsDNA)
DNA 1: CTGGGTATTAAAAAGAAGATCTATTTATGATCAGTTCTGTTCTGTTCTGTTCTCTTATTAGGCTCGCACTGCCCT
DNA 2: AGGGCAGTGCGAGCCTAATAAGAGAACAGAACAGAACAGAACTGATCATAAATAGATCTTCTTTTTAATACCCAG
modifications: hemi-methylated GATC (N6-methyladenine on one strand; which strand not stated)
B2: binds (SeqA [2]).

B3: 75 bp, two hemi-sites, 16 bp spacing (Fig 2E) (dsDNA)
DNA 1: CTGGGTATTAAAAAGAAGATCTATTTATGTTCAGATCTGTTCTGTTCTGTTCTCTTATTAGGCTCGCACTGCCCT
DNA 2: AGGGCAGTGCGAGCCTAATAAGAGAACAGAACAGAACAGATCTGAACATAAATAGATCTTCTTTTTAATACCCAG
modifications: hemi-methylated GATC (N6-methyladenine on one strand; which strand not stated)
B3: binds (SeqA [2]).

B4: 75 bp, two hemi-sites, 16 bp spacing (Fig 3A) (dsDNA)
DNA 1: CTGGGTATTAAAAAGAAGATCTATTTATTTAGAGATCTGTTCTATTGTGATCTCTTATTAGGATCGCACTGCCCT
DNA 2: AGGGCAGTGCGATCCTAATAAGAGATCACAATAGAACAGATCTCTAAATAAATAGATCTTCTTTTTAATACCCAG
modifications: hemi-methylated GATC (N6-methyladenine on one strand; which strand not stated)
B4: binds (SeqA [3]); binds (SeqA(T18G)).

B5: 75 bp, two hemi-sites, 31 bp spacing (dsDNA)
DNA 1: CTGGGTATTAAAAAGAAGATCTATTTATGTTCAGTTCTGTTCTGTTCTGATCTCTTATTAGGCTCGCACTGCCCT
DNA 2: AGGGCAGTGCGAGCCTAATAAGAGATCAGAACAGAACAGAACTGAACATAAATAGATCTTCTTTTTAATACCCAG
modifications: hemi-methylated GATC (N6-methyladenine on one strand; which strand not stated)
B5: binds (SeqA [2]).
